From patent US20170166631A1 (published 2017)
Read-outs that look alike come from different tables or passages of the source.

Columns and labels:
Assay in all cases: ELISA
[1] = target: T1, HD49 (huntingtin exon 1 protein with 49 polyQ repeats after cleavage of the GST tag; aggregation reaction) (human, UniProt P42858 1-88)
T1 chain: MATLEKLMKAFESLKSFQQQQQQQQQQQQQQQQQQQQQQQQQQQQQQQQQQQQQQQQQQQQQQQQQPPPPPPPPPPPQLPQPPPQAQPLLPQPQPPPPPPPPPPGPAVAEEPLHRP

[2] = target: T2, HD21 (huntingtin exon 1 protein with 21 polyQ repeats after cleavage of the GST tag; aggregation reaction) (human, UniProt P42858 1-88)
T2 chain: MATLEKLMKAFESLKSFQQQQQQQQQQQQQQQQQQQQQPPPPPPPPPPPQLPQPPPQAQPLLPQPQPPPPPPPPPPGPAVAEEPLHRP

[3] = target: T3, GST-HttExon1Q21 (recombinant huntingtin exon 1 protein with 21 polyQ repeats fused to an N-terminal GST tag) (;human, UniProt P08515 1-218 = GST; P42858 1-88)
[4] = target: T4, BSA-coupled synthetic peptide of the polyP repeat sequence of huntingtin exon 1 (coupled to BSA)
T4 peptide: PPPPPPPPPPP

[5] = target: T1, HD49 (huntingtin exon 1 protein with 49 …)
[6] = target: T2, HD21 (huntingtin exon 1 protein with 21 …)
[7] = target: T3, GST-HttExon1Q21 (recombinant huntingtin …); remark: listed apart in the source
Target sequence in this assay (P08515 1-218, tags or fused parts left off): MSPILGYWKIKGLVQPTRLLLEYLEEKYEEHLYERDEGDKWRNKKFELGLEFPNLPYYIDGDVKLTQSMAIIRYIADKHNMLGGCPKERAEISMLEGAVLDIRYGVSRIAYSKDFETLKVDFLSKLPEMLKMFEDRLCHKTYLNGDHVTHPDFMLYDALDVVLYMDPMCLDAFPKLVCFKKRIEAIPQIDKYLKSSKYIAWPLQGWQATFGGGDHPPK

[8] = target: T1, HD49 (huntingtin exon 1 protein with 49 …)
[9] = target: T2, HD21 (huntingtin exon 1 protein with 21 …)
[10] = target: T3, GST-HttExon1Q21 (recombinant huntingtin …); remark: listed apart in the source
[11] = target: T5, BSA-coupled synthetic peptide of the 14 C-terminal amino acids of huntingtin exon 1 (coupled to BSA)
T5 peptide: PPGPAVAEEPLHRP

[12] = target: T6, BSA-coupled synthetic peptide of the P-rich domain sequence of huntingtin exon 1 (coupled to BSA)
T6 peptide: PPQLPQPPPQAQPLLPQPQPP

[13] = target: T1, HD49 (huntingtin exon 1 protein with 49 …)
[14] = target: T2, HD21 (huntingtin exon 1 protein with 21 …)
[15] = target: T3, GST-HttExon1Q21 (recombinant huntingtin …); remark: listed apart in the source
[16] = target: T1, HD49 (huntingtin exon 1 protein with 49 …)
[17] = target: T2, HD21 (huntingtin exon 1 protein with 21 …)
[18] = target: T3, GST-HttExon1Q21 (recombinant huntingtin …); remark: listed apart in the source
Target sequence in this assay (P08515 1-218, tags or fused parts left off): as the sequence (P08515 1-218, tags or fused parts left off) above

[19] = target: T1, HD49 (huntingtin exon 1 protein with 49 …)
[20] = target: T2, HD21 (huntingtin exon 1 protein with 21 …)
[21] = target: T3, GST-HttExon1Q21 (recombinant huntingtin …); remark: listed apart in the source
[22] = target: T2, HD21 (huntingtin exon 1 protein with 21 …)
[23] = target: T3, GST-HttExon1Q21 (recombinant huntingtin …); remark: listed apart in the source
[24] = target: T1, HD49 (huntingtin exon 1 protein with 49 …)
[25] = target: T2, HD21 (huntingtin exon 1 protein with 21 …)
[26] = target: T3, GST-HttExon1Q21 (recombinant huntingtin …); remark: listed apart in the source

B1: NI-302.33C11 (antibody, V domains shown)
VH: EVQLVESGGGVVQPGNSLRLSCAASGFRFSDFGMHWVRQAPGKGLEWLALIWYDGGYKYYADSVKGRFTISRDNSKNTMFLQMNSLRAEDTAVYYCATHLEYCSRTTCYLGHWGQGTLVTVSS
VL: DIQLTQSPSFLSASVGDTVTFTCRASQGISDYLAWFQQKPGIAPKLLIYAASTLQTGVPSRFSGSGSGTEFTLTIRSLQSEDFGTYYCQQLKTYPYTFGQGTKVEIK
Q: With B1 as the binder, how does the EC50 [1] read?
A: The EC50 was 0.15 nM.

Q: And the EC50 [2]?
A: Its EC50 is 0.13 nM.

Q: And the EC50 [3]?
A: Its EC50 is 0.11 nM.

Q: And the EC50 [4]?
A: Its EC50 is 0.1 nM.

Q: And the EC50 [5]?
A: Its EC50 is 0.15 nM.

Q: What about the EC50 [6] of the same binder?
A: The EC50 was 0.13 nM.

Q: And the EC50 [7]?
A: The EC50 was 0.11 nM.

B2: NI-302.72F10 (antibody, V domains shown)
VH: EVQLVETGGGFVQPGGSLRLSCAASGFNFGSYAMSWVRQAPGKGLEWVSDISGIGSNTYYADSVKGRFTISRDNSDNTLYLDMSSLRAEDTARYYCAKDRKRSGWYEQWGQGTLVTVSS
VL: EIVMTQSPATLTLSPGERATLSCRASQSISAYLGWYQQKPGQAPRLLIYDASIRATGIPDRFSGSGSGTDFTLTISSLEPEDSAVYYCHQRSKWPLTFGGGTKVEIK
Q: What does the source list for B2?
A: EC50 [8]: 26 nM; EC50 [9]: 4 nM; EC50 [10]: 10 nM; EC50 [5]: 26 nM; EC50 [11]: 0.1 nM; EC50 [6]: 4 nM; EC50 [7]: 10 nM

B3: NI-302.64E5 (antibody, V domains shown)
VH: EVQLVETGGGLVKPGGSLRLSCAASGFTFDQAWMSWVRQVPGKGLEWVGRIKTKTEGEATDYAAPVRGRFTISRDDSEDTVFLQMNSLKTEDTALYYCTSTGVLAAAVDVYWGQGTLVTVSS
VL: DIQLTQSPDSLAVSLGERATMTCKSSQSLFYSYNNENYLAWYQQRPGQPPKLLIYWASTRESGVPDRFSGSGSGTDFTLTISSLQAEDVAVYYCQQYYSTPQTFGQGTKVDIK
Q: Which EC50 [8] does the source give for B3 here?
A: Its EC50 is 1.6 nM.

Q: And the EC50 [9]?
A: Its EC50 is 0.7 nM.

Q: And the EC50 [10]?
A: Its EC50 is 1.4 nM.

Q: What about the EC50 [12] of the same binder?
A: The EC50 was 0.1 nM.

Q: What about the EC50 [5] of the same binder?
A: The EC50 was 1.6 nM.

Q: And the EC50 [6]?
A: The EC50 was 0.7 nM.

Q: What about the EC50 [7] of the same binder?
A: The EC50 was 1.4 nM.

B4: NI-302.15E8 (antibody, V domains shown)
VH: EVQLVESGGGLIQPGGSLRLSCAVSGFTVSSYSMNWVRQAPGKGLEWVSYTSSSRSNTKKYADSVKGRFTISRDNARNSLYLQMNSLRDEDTAVYYCARAGDFGELLTGEGYYGMDVWGQGTTVTVSS
VL: SYELTQPPSVSVSPGQTATITCSGDELGDKYVGWYQQKPGQSPLLVIYQDAKRPSGIPERFSGSNSGNTATLTISGTQAMDEADYYCQAWDSGTMVFGGGTRLTVL
Q: Which EC50 [13] does the source give for B4 here?
A: The EC50 was greater than 100 nM.

Q: What about the EC50 [14] of the same binder?
A: The EC50 was greater than 100 nM.

Q: And the EC50 [15]?
A: Its EC50 is 9.3 nM.

Q: What about the EC50 [5] of the same binder?
A: Its EC50 is greater than 100 nM.

Q: And the EC50 [6]?
A: The EC50 was greater than 100 nM.

Q: What about the EC50 [7] of the same binder?
A: Its EC50 is 9.3 nM.

B5: NI-302.39G12 (antibody, V domains shown)
VH: EVQLVQSGGGLVHPWGSLRLSCAASGFSVSNYAITWVRRAPGKGLQYISVIYRDGRTYYGDSVRGRFTISRDDSKNTLYLQMNSLRFEDTAVYYCARAHGQYYYGVDVWGQGTTVTVSS
VL: DVVMTQSPLSLSVSPGEPASISCRSSQSLLHSNGYNYLDWYRQKPGQSPQLLIYLSSNRPSGVPDRFSASGSGTEFTLQISRVEAEDVGVYYCMQSLQTFTFGGGTKVDIK
Q: For B5, which EC50 [16] is on record?
A: The EC50 was 28 nM.

Q: What about the EC50 [17] of the same binder?
A: Its EC50 is 15 nM.

Q: What about the EC50 [18] of the same binder?
A: The EC50 was 3.4 nM.

Q: What about the EC50 [19] of the same binder?
A: The EC50 was 28 nM.

Q: And the EC50 [20]?
A: The EC50 was 15 nM.

Q: What about the EC50 [21] of the same binder?
A: Its EC50 is 3.4 nM.

B6: NI-302.35C1 (antibody, V domains shown)
VH: EVQLVESGGNLVQPGGSLRLSCTASGFTFSITALSWVRQAPEKGPQWVSAITGNAYGTYYADSVKGRFTISRDNAKNTLYLQMNGLRAEDTAIYYCVKGIASDSSGYSAFWGPGTLVTVSS
VL: EIVLTQSPATLSLSPGERATLSCRASQSVDNQFAWYQQKPGQAPRLLIYDASRRAPGIPDRFSGSGSGTDFTLTISSLEPEDFAIYYCQHRYTWLYTFGQGTRLEIK
Q: How did the EC50 [22] turn out when B6 was run?
A: Its EC50 is 7.9 nM.

Q: And the EC50 [23]?
A: The EC50 was 4.6 nM.

Q: And the EC50 [6]?
A: Its EC50 is 7.9 nM.

Q: What about the EC50 [7] of the same binder?
A: The EC50 was 4.6 nM.

B7: NI-302.11A4 (antibody, V domains shown)
VH: EVQLVESGGGLIQPGGSLRLSCAASGFPVSSSYMSWVRQAPGEGLEWVSVLYRDGDTYYADSVQGRFTISRDNSQNTFYLQMNSLKAEDTAVYYCAGDRRSSHYYYGMDVWGQGTTVTVSS
VL: EIVMTQSPGTLSLSPGERATLSCRASQSVSSSYFAWYQQKPGQAPRLLIYGTSRRATAIPDRFSGSGSGTDFTLTISRLEPEDFAVYYCQQYGSSWTFGPGTKVEIK
Q: Which EC50 [16] does the source give for B7 here?
A: The EC50 was 19 nM.

Q: And the EC50 [17]?
A: Its EC50 is 18 nM.

Q: What about the EC50 [18] of the same binder?
A: The EC50 was 1.4 nM.

Q: And the EC50 [19]?
A: The EC50 was 19 nM.

Q: What about the EC50 [20] of the same binder?
A: The EC50 was 18.2 nM.

Q: What about the EC50 [21] of the same binder?
A: Its EC50 is 1.4 nM.

B8: NI-302.63F3 (antibody, V domains shown)
VH: QVQLVQSGSAFKKPGTSVKVSCKASGYTFETRSMNWVRQAPGQGLEYMGWINTNTGNRTYVQAFRGRFVFSLDTSVSTAYLQISNLKTEDTAVYYCARGAGGGYWFDSWGQGTLVTVSS
VL: DIQMTQSPDSLAVSLGERATINCKSNQSLFYSSNNNNYLAWYQHKSGQPPKLLVYWGSTRESGVPDRFSGSGSGTDFTLTISSLQAEDVAIYYCHQYYHNPYTFGQGTKLEIK
Q: Which results are given for B8?
A: EC50 [12]: 0.3 nM; EC50 [5]: 0.4 nM; EC50 [6]: 0.3 nM; EC50 [7]: 0.2 nM; EC50 [24]: 0.4 nM; EC50 [25]: 0.3 nM; EC50 [26]: 0.2 nM
